From US20210196796A1 (SYNTHEKINE, published 2021)
Residue numbers refer to the chain shown, from its start. Names may count otherwise.

B1: N88Q, SQVLKA (ligand)
chain: APTSSSTKKTQLQLSQLLVLLKAILNGINNYKNPKLTRMLTFKFYMPKKATELKHLQCLEEELKPLEEVLNLAQSKNFHLRPRDLISQINVIVLELKGSETTFMCEYADETATIVEFLNRWITFCQSIISTLT
B2: M104A, SQVLKA (ligand)
chain: B1 chain with Q88N, M104A
B3: T113N, SQVLKA (ligand)
chain: B1 chain with Q88N, T113N
B4: K97Q, SQVLKA (ligand)
chain: B1 chain with Q88N, K97Q
B5: D109C, SQVLKA (ligand)
chain: B1 chain with Q88N, D109C
B6: I92F, SQVLKA (ligand)
chain: B1 chain with Q88N, I92F
B7: V91R, SQVLKA (ligand)
chain: B1 chain with Q88N, V91R
B8: L14M, SQVLKA (ligand)
chain: B1 chain with L14M, Q88N
B9: V91K, SQVLKA (ligand)
chain: B1 chain with Q88N, V91K

Target: T1, orthogonal hCD122 receptor (hoRb), hCD122 with H133D and Y134F (human, UniProt P14784 27-550)
T1 sequence: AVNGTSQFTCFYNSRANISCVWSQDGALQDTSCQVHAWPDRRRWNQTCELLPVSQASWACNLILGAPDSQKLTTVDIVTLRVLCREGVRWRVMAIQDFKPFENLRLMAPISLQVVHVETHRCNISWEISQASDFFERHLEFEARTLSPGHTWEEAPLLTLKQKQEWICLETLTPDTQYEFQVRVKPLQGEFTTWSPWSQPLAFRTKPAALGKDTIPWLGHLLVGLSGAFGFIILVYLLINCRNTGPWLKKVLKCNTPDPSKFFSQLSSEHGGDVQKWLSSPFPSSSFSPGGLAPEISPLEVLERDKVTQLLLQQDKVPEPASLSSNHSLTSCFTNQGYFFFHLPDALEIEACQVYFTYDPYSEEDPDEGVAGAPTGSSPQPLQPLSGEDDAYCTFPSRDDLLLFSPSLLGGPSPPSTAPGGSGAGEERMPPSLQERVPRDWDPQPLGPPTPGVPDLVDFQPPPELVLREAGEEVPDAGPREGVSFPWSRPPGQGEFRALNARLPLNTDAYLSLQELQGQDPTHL
Assay: cell-based or functional assay
Throughout, for Relative Proliferation Fold Change 3F8 1:10: reference of the scale not given here.
Throughout, for Relative Proliferation Fold Change 3F8 1:2: reference of the scale not given here.
Throughout, for Relative Proliferation Fold Change 3F8 1:50: reference of the scale not given here.
Throughout, for Relative Proliferation Fold Change NKL 1:10: reference of the scale not given here.
Throughout, for Relative Proliferation Fold Change NKL 1:2: reference of the scale not given here.
Throughout, for Relative Proliferation Fold Change NKL 1:50: reference of the scale not given here.

Binder	NKL Ortho Proliferation Signal 1:2	NKL Ortho Proliferation Signal 1:10	NKL Ortho Proliferation Signal 1:50	Relative Proliferation Fold Change NKL 1:2 [fold]	Relative Proliferation Fold Change NKL 1:10 [fold]	Relative Proliferation Fold Change NKL 1:50 [fold]
B1	4980	6960	6240	0.43	0.53	0.5
B2	47600	54800	29500	3.88	3.48	2.09
B3	47400	48800	21400	3.71	3.45	1.63
B4	53000	55400	25200	3.29	3.64	1.9
B5	47800	44200	20400	4.2	3.22	1.52
B6	32200	27000	12800	2.32	1.84	0.92
B7	8530	5580	4420	0.86	0.53	0.44
B8	57200	54500	26700	3.76	3.45	1.98
B9	5180	5210	4940	0.74	0.63	0.53

Target: T1, orthogonal hCD122 receptor (hoRb), …
Assay: cell-based or functional assay
Remark: another data set of the same source

Binder	3F8 Ortho Proliferation Signal 1:2 [cts/min]	3F8 Ortho Proliferation Signal 1:10 [cts/min]	3F8 Ortho Proliferation Signal 1:50 [cts/min]	Relative Proliferation Fold Change 3F8 1:2 [fold]	Relative Proliferation Fold Change 3F8 1:10 [fold]	Relative Proliferation Fold Change 3F8 1:50 [fold]
B1	644	914	1070	1.25	0.84	0.6
B2	29300	42400	27100	24.4	37.6	39.7
B3	31600	33100	13600	39.6	38.8	12.7
B4	35600	40100	19700	91.6	32.5	33.1
B5	29100	34000	18600	84	51.4	23.2
B6	29700	36300	20900	80.2	57.6	18.4
B7	12500	5140	2850	35.6	10	2.93
B8	39800	41500	18500	40.9	34.1	12.1
B9	3720	992	804	13.4	1.44	1.25
